Assay [1] concerns the target human metapneumovirus (HMPV) F protein on GFP-expressing hMPV (NL/1/00, A1 sublineage) (human metapneumovirus). Description: cell-based or functional assay.
The target in assay [2] is RSV F protein of subtype A (strain A2) on recombinant mKate-RSV (Respiratory syncytial virus subtype A (strain A2)) (UniProt P03420). Description: cell-based or functional assay.
RSV F protein of subtype A (strain A2) on recombinant mKate-RSV (Respiratory syncytial virus subtype A (strain A2)), sequence (P03420 26-574): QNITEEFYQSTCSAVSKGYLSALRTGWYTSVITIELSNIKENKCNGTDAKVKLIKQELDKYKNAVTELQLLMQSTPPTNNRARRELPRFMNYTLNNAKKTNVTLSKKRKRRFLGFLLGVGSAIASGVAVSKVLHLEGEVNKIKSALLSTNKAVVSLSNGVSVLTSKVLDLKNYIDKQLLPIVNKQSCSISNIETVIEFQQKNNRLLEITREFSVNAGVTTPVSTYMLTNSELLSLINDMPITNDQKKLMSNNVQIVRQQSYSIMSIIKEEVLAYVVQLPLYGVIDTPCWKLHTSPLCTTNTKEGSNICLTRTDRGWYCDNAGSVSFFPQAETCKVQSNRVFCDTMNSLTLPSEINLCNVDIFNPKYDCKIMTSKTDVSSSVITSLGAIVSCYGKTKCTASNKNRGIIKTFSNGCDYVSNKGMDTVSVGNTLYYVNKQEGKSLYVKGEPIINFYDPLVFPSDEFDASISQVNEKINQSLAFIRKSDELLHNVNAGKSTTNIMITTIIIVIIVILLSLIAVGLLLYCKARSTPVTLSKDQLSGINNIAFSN

Consider MPE8 (antibody), for which the HMPV-A1 IC50 in assay [1] was found to be 0.07 µg/mL. In addition, the RSV-A2 IC50 in assay [2] was determined as 0.04 µg/mL.

The record behind these values is patent publication US20250313612A1.
